Residue numbers refer to the chain shown, from its start.
B1: Avr 5'C biotin hairpin (dsDNA)
DNA: ATCTTAGCACCTGGTTGGAGGGGGTTTATGGGGTTTTCCCCATAAACCCCCTCCAACCAGGTGCTAAGAT
B2: Avr 5'G biotin hairpin (dsDNA)
DNA: B1 DNA with G30C, C41G
B3: Avr 5'A biotin hairpin (dsDNA)
DNA: B1 DNA with G30T, C41A

Target: MBP-TALE AvrXa7 NT-βN (synthetic, [XXX]=Y-H)
Assay: p228, FIG 26
Conditions: tags: MBP; label: 5'-biotin; hairpin

| Binder | binding result |
| --- | --- |
| B1 | binds |
| B2 | binds |
| B3 | binds |

Source: patent US20230304022, “CHIMERIC POLYPEPTIDES HAVING TARGETED BINDING SPECIFICITY” (The Scripps Research Institute, published 2023)
